Reference: article PMC9070667, “Molecular insights into RNA recognition and gene regulation by the TRIM-NHL protein Mei-P26”

Experiments:
[1] = molecular target: T1, Mei-P26 NHL wt (Drosophila melanogaster (Oregon-R), UniProt M9PH32 908-1206); assay: MST; MST: 20 mM Hepes/KOH pH 7.5, 100 mM NaCl, 5 mM MgCl2, 5 mM DTT, 0.0125% Tween 20, 25 C (Brat: 20 mM Tris 8.0, 150 mM NaCl, 1 mM MgCl2, 5 mM DTT, 0.0125% Tween 20). EMSA, 1:1 mix, 4 C: RNA in 10 mM Tris pH 7.4, 50 mM KCl, 1 mM EDTA, 1 mM DTT, 0.4 mg/ml yeast tRNA; protein in 20 mM Hepes pH 7.5, 5 mM DTT, 100 mM (wt) or 300 mM (mutants) NaCl, 5% glycerol; details: protein: recombinant, tags: GST removed by TEV
T1 sequence: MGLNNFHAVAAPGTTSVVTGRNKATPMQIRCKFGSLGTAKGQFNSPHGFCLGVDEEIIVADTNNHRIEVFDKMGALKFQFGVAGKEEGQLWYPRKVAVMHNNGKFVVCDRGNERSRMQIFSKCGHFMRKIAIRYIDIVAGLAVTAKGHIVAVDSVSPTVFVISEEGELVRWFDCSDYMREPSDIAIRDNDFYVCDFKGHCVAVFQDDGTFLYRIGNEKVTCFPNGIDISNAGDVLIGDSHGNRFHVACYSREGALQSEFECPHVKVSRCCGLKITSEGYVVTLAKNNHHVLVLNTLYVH

[2] = molecular target: T2, Mei-P26 NHL RKR (Drosophila melanogaster (Oregon-R), UniProt M9PH32 908-1206, R1150A;K1172A;R1175A); assay: as above; details: protein: recombinant; tags: GST removed by TEV; label: Cy5
T2 sequence: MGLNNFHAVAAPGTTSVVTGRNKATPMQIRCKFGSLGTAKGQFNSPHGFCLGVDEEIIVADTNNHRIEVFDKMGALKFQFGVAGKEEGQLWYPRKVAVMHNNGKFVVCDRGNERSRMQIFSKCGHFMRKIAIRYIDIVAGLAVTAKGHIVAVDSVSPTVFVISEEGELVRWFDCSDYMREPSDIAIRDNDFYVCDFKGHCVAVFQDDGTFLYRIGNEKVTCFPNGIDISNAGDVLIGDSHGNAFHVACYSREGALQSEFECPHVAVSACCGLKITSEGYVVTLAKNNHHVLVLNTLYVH

[3] = molecular target: T1, Mei-P26 NHL wt; assay: EMSA; MST: 20 mM Hepes/KOH pH 7.5, 100 mM NaCl, 5 mM MgCl2, 5 mM DTT, 0.0125% Tween 20, 25 C (Brat: 20 mM Tris 8.0, 150 mM NaCl, 1 mM MgCl2, 5 mM DTT, 0.0125% Tween 20). EMSA, 1:1 mix, 4 C: RNA in 10 mM Tris pH 7.4, 50 mM KCl, 1 mM EDTA, 1 mM DTT, 0.4 mg/ml yeast tRNA; protein in 20 mM Hepes pH 7.5, 5 mM DTT, 100 mM (wt) or 300 mM (mutants) NaCl, 5% glycerol; details: protein: recombinant, tags: GST removed by TEV
[4] = molecular target: T2, Mei-P26 NHL RKR; assay: as above; details: protein: recombinant; tags: GST removed by TEV; label: 32P
[5] = molecular target: T3, Mei-P26 NHL R1175A (Drosophila melanogaster (Oregon-R), UniProt M9PH32 908-1206, R1175A); assay: MST; minor influence of the mutation; MST: 20 mM Hepes/KOH pH 7.5, 100 mM NaCl, 5 mM MgCl2, 5 mM DTT, 0.0125% Tween 20, 25 C (Brat: 20 mM Tris 8.0, 150 mM NaCl, 1 mM MgCl2, 5 mM DTT, 0.0125% Tween 20). EMSA, 1:1 mix, 4 C: RNA in 10 mM Tris pH 7.4, 50 mM KCl, 1 mM EDTA, 1 mM DTT, 0.4 mg/ml yeast tRNA; protein in 20 mM Hepes pH 7.5, 5 mM DTT, 100 mM (wt) or 300 mM (mutants) NaCl, 5% glycerol; details: protein: recombinant; tags: GST removed by TEV; label: Cy5 (MST); 32P (EMSA)
T3 sequence: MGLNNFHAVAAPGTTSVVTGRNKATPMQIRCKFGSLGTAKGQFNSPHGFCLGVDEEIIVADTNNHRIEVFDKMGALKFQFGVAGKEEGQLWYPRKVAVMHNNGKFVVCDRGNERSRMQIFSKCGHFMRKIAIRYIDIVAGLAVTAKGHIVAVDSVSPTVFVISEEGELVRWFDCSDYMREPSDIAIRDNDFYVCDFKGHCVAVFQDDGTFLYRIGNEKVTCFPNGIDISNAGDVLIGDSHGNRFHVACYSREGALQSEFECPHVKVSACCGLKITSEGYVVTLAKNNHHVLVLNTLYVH

[6] = molecular target: T4, Brat NHL (Drosophila melanogaster, UniProt Q8MQJ9 756-1037); assay: MST; MST: 20 mM Hepes/KOH pH 7.5, 100 mM NaCl, 5 mM MgCl2, 5 mM DTT, 0.0125% Tween 20, 25 C (Brat: 20 mM Tris 8.0, 150 mM NaCl, 1 mM MgCl2, 5 mM DTT, 0.0125% Tween 20). EMSA, 1:1 mix, 4 C: RNA in 10 mM Tris pH 7.4, 50 mM KCl, 1 mM EDTA, 1 mM DTT, 0.4 mg/ml yeast tRNA; protein in 20 mM Hepes pH 7.5, 5 mM DTT, 100 mM (wt) or 300 mM (mutants) NaCl, 5% glycerol; details: protein: recombinant; tags: His6-ubiquitin fusion (pHUE); label: Cy5
T4 sequence: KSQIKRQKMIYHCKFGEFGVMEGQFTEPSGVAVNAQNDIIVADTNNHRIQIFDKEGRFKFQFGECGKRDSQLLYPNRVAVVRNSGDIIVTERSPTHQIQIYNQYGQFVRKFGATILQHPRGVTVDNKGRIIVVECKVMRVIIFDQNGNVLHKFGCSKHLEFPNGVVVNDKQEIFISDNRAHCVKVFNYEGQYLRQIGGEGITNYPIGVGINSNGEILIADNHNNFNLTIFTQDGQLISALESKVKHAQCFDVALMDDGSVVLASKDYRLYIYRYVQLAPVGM

Binder: AUUUACA (ssRNA) [SEQ2]
- binding result ([1]; label: Cy5): binds

Binder: UUUUACA (ssRNA) [SEQ3]
- Kd ([1]; label: Cy5): 1700 nM
- binding result [2]: no binding

Binder: GGAGUCCAACUCC (structured_RNA) [dsRNA hairpin (Lin41 SEQ)]
- binding result ([1]; label: Cy5 (MST), 32P (EMSA), hairpin): no binding

Binder: UUUUUAA (ssRNA) [BRATmut]
- binding result ([1]; label: Cy5): binds

Binder: UUUUUUU (ssRNA) [U7 (SEQ1)]
- Kd ([1]; label: Cy5): 1800 ± 200 nM

Binder: AUCCUUUUUAAAACUCC (ssRNA) [LanA]
- binding result ([3]; label: 32P): binds
- binding result [4]: no binding

Binder: UUUUUUUUU (ssRNA) [U9]
- binding result ([3]; label: Cy5 (MST), 32P (EMSA)): binds
- binding result [5]: binds

Binder: UUUUACAA (ssRNA) [SEQ44U]
- binding result ([1]; label: Cy5): binds

Binder: UUUUUAC (ssRNA) [SEQ5]
- binding result ([1]; label: Cy5): binds

Binder: UUGUUAA (ssRNA) [BRAT1]
- binding result [6]: binds

Binder: CCCUUUUUUUAUACACAA (ssRNA) [lost]
- binding result ([3]; label: 32P): binds
- binding result [4]: no binding

Binder: TTTTACA (ssDNA) [DNA]
- binding result ([1]; label: Cy5 (MST), 32P (EMSA)): no binding

Binder: GCCAUUUUUUAUCUGCCA (ssRNA) [Col4a1]
- binding result ([3]; label: 32P): binds
- binding result [4]: no binding

Binder: AGUAAUUUUUUCUAUUAAAGU (ssRNA) [Hrb27C]
- binding result ([3]; label: 32P): binds
- binding result [4]: no binding

Binder: GGUCUUUUUACAAAAG (ssRNA) [Mlc-c]
- binding result ([3]; label: 32P): binds
- binding result [4]: no binding
